Experimental data taken from the supplement of paper PMC9112550, “Optimization of the antimicrobial peptide Bac7 by deep mutational scanning” (BMC Biology, 2022).

system: Escherichia coli TOP10; assay: shrunken log2 fold change of peptide-encoding DNA abundance (4.5 h post-induction vs induction); higher = less antimicrobial activity (less host growth inhibition); details: time post-induction: 4.5 h; library: site-saturation at positions 5, 18, 19, 20
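Further: peptides expressed intracellularly from a pBAD plasmid library in pooled LB shake-flask culture, induced with 0.3% L-arabinose, DNA abundance read by NGS, three biological replicates, DESeq2 with apeglm shrinkage.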

Row | Sequence | shrunken log2 fold change
1 | RRIRQRPPRLPRPRPRPVPIPRP | -0.0341
2 | RRIRPRPPRLPRPRPRPDHEPRP | 0.0217
3 | RRIRLRPPRLPRPRPRPGGNPRP | -0.0421
4 | RRIRERPPRLPRPRPRPHHPPRP | -0.197
5 | RRIRWRPPRLPRPRPRPFKIPRP | -0.358
6 | RRIRMRPPRLPRPRPRPRDCPRP | 0.288
7 | RRIRGRPPRLPRPRPRPAHNPRP | 0.157
8 | RRIRFRPPRLPRPRPRPGFKPRP | 0.122
9 | RRIRWRPPRLPRPRPRPAQTPRP | 0.476
10 | RRIRARPPRLPRPRPRPLWAPRP | 0.589
11 | RRIRTRPPRLPRPRPRPKMIPRP | 0.013
12 | RRIRPRPPRLPRPRPRPPPKPRP | 0.902
13 | RRIRCRPPRLPRPRPRPEWGPRP | 0.163
14 | RRIRTRPPRLPRPRPRPVLFPRP | -0.193
15 | RRIRERPPRLPRPRPRPQGGPRP | -0.0586
16 | RRIRVRPPRLPRPRPRPKDAPRP | 0.0211
17 | RRIRHRPPRLPRPRPRPEKDPRP | -0.0422
18 | RRIRQRPPRLPRPRPRPDMPPRP | -0.2
19 | RRIRSRPPRLPRPRPRPQGHPRP | 0.00442
20 | RRIRVRPPRLPRPRPRPISEPRP | -0.282
21 | RRIRRRPPRLPRPRPRPENWPRP | 0.153
22 | RRIRHRPPRLPRPRPRPNYMPRP | -0.0657
23 | RRIRRRPPRLPRPRPRPRENPRP | 0.135
24 | RRIRMRPPRLPRPRPRPRWTPRP | 0.548
25 | RRIRQRPPRLPRPRPRPQTKPRP | -0.133

Row | Sequence | shrunken log2 fold change
26 | RRIRSRPPRLPRPRPRPAGRPRP | 0.287
27 | RRIRFRPPRLPRPRPRPLLQPRP | 0.0394
28 | RRIRYRPPRLPRPRPRPLCMPRP | -0.795
29 | RRIRMRPPRLPRPRPRPVTLPRP | -0.393
30 | RRIRHRPPRLPRPRPRPRNDPRP | -0.0937
31 | RRIRERPPRLPRPRPRPYWNPRP | -0.858
32 | RRIRCRPPRLPRPRPRPWFKPRP | -0.582
33 | RRIRCRPPRLPRPRPRPYTDPRP | -0.431
34 | RRIRKRPPRLPRPRPRPDYVPRP | -0.0105
35 | RRIRMRPPRLPRPRPRPYGAPRP | -0.105
36 | RRIRNRPPRLPRPRPRPPRCPRP | 0.389
37 | RRIRFRPPRLPRPRPRPFCQPRP | -0.317
38 | RRIRPRPPRLPRPRPRPITAPRP | -0.187
39 | RRIRKRPPRLPRPRPRPQCHPRP | 0.273
40 | RRIRERPPRLPRPRPRPANRPRP | 0.111
41 | RRIRIRPPRLPRPRPRPGCRPRP | 0.0314
42 | RRIRDRPPRLPRPRPRPFTEPRP | -0.165
43 | RRIRHRPPRLPRPRPRPSEQPRP | -0.178
44 | RRIRIRPPRLPRPRPRPPDTPRP | -0.116
45 | RRIRHRPPRLPRPRPRPNCNPRP | -0.589
46 | RRIRSRPPRLPRPRPRPNFVPRP | -0.0465
47 | RRIRDRPPRLPRPRPRPYEQPRP | -0.0135
48 | RRIRQRPPRLPRPRPRPRTLPRP | 0.0409
49 | RRIRIRPPRLPRPRPRPDYHPRP | -1.9
50 | RRIRCRPPRLPRPRPRPIWQPRP | 0.102

Row | Sequence | shrunken log2 fold change
51 | RRIRGRPPRLPRPRPRPIKAPRP | 0.024
52 | RRIRSRPPRLPRPRPRPEIKPRP | 0.104
53 | RRIRPRPPRLPRPRPRPMNFPRP | -0.165
54 | RRIRYRPPRLPRPRPRPFLVPRP | -1.03
55 | RRIRTRPPRLPRPRPRPATMPRP | -0.0723
56 | RRIRNRPPRLPRPRPRPGFMPRP | -0.0522
57 | RRIRLRPPRLPRPRPRPKYHPRP | -0.472
58 | RRIRDRPPRLPRPRPRPIENPRP | -0.144
59 | RRIRCRPPRLPRPRPRPCHYPRP | -0.403
60 | RRIRTRPPRLPRPRPRPFSDPRP | -0.399
61 | RRIRGRPPRLPRPRPRPITTPRP | 0.407
62 | RRIRIRPPRLPRPRPRPWGCPRP | -0.307
63 | RRIRMRPPRLPRPRPRPQVMPRP | 0.0337
64 | RRIRARPPRLPRPRPRPWEYPRP | -0.00494
65 | RRIRRRPPRLPRPRPRPSIDPRP | -0.107
66 | RRIRMRPPRLPRPRPRPIMPPRP | 0.0288
67 | RRIRNRPPRLPRPRPRPKKHPRP | -0.315
68 | RRIRHRPPRLPRPRPRPDNGPRP | -0.00804
69 | RRIRHRPPRLPRPRPRPYKYPRP | -0.128
70 | RRIRRRPPRLPRPRPRPSLRPRP | -0.0199
71 | RRIRTRPPRLPRPRPRPSIIPRP | -0.647
72 | RRIRFRPPRLPRPRPRPQGRPRP | 0.19
73 | RRIRWRPPRLPRPRPRPDQNPRP | -0.0342
74 | RRIRIRPPRLPRPRPRPWYDPRP | -0.0891
75 | RRIRLRPPRLPRPRPRPTDLPRP | -0.0813

Row | Sequence | shrunken log2 fold change
76 | RRIRRRPPRLPRPRPRPVFPPRP | 0.488
77 | RRIRKRPPRLPRPRPRPLVYPRP | -0.23
78 | RRIRPRPPRLPRPRPRPWMTPRP | 0.0158
79 | RRIRIRPPRLPRPRPRPSDRPRP | -0.24
80 | RRIRLRPPRLPRPRPRPEQWPRP | -0.00018
81 | RRIRQRPPRLPRPRPRPGFYPRP | 0.116
82 | RRIRIRPPRLPRPRPRPFWFPRP | -0.684
83 | RRIRSRPPRLPRPRPRPVFSPRP | -0.43
84 | RRIRQRPPRLPRPRPRPLCMPRP | -0.37
85 | RRIRHRPPRLPRPRPRPAQEPRP | 0.381
86 | RRIRNRPPRLPRPRPRPDLEPRP | 0.124
87 | RRIRVRPPRLPRPRPRPMIGPRP | -0.112
88 | RRIRMRPPRLPRPRPRPGLEPRP | 1.61
89 | RRIRIRPPRLPRPRPRPELIPRP | 0.0381
90 | RRIRTRPPRLPRPRPRPKNLPRP | -0.143
91 | RRIRMRPPRLPRPRPRPIYVPRP | -0.165
92 | RRIRTRPPRLPRPRPRPPGHPRP | 0.245
93 | RRIRYRPPRLPRPRPRPNYYPRP | -1.16
94 | RRIRARPPRLPRPRPRPKALPRP | 0.294
95 | RRIRIRPPRLPRPRPRPHMAPRP | -0.367
96 | RRIRARPPRLPRPRPRPEVLPRP | 0.709
97 | RRIRKRPPRLPRPRPRPFFYPRP | 0.0957
98 | RRIRQRPPRLPRPRPRPHQLPRP | 0.142
99 | RRIRPRPPRLPRPRPRPPLQPRP | 0.327
100 | RRIRARPPRLPRPRPRPSNFPRP | -0.221

Row | Sequence | shrunken log2 fold change
101 | RRIRRRPPRLPRPRPRPMHEPRP | 0.213
102 | RRIRFRPPRLPRPRPRPWCVPRP | -0.384
103 | RRIRTRPPRLPRPRPRPHPVPRP | 0.1
104 | RRIRARPPRLPRPRPRPVTFPRP | 0.0573
105 | RRIRSRPPRLPRPRPRPSIMPRP | -0.196
106 | RRIRIRPPRLPRPRPRPIWRPRP | 0.529
107 | RRIRWRPPRLPRPRPRPHYIPRP | -0.468
108 | RRIRRRPPRLPRPRPRPMAIPRP | 0.202
109 | RRIRNRPPRLPRPRPRPNGKPRP | -0.16
110 | RRIRYRPPRLPRPRPRPTFGPRP | -0.0386
111 | RRIRFRPPRLPRPRPRPLWIPRP | -0.624
112 | RRIRFRPPRLPRPRPRPLKRPRP | -0.227
113 | RRIRTRPPRLPRPRPRPWAQPRP | 0.0456
114 | RRIRNRPPRLPRPRPRPNWNPRP | -0.691
115 | RRIRKRPPRLPRPRPRPTTRPRP | 0.717
116 | RRIRTRPPRLPRPRPRPWIKPRP | -0.231
117 | RRIRRRPPRLPRPRPRPHSTPRP | 0.0894
118 | RRIRLRPPRLPRPRPRPYEFPRP | -0.111
119 | RRIRCRPPRLPRPRPRPCSNPRP | -0.274
120 | RRIRGRPPRLPRPRPRPWDDPRP | 0.137
121 | RRIRLRPPRLPRPRPRPQTRPRP | 0.08
122 | RRIRTRPPRLPRPRPRPVWLPRP | -0.101
123 | RRIRSRPPRLPRPRPRPCWRPRP | 0.106
124 | RRIRVRPPRLPRPRPRPSHGPRP | -0.143
125 | RRIRDRPPRLPRPRPRPCYMPRP | -0.192
